# Results: the RNAGym collection of RNA variant scans (doi:10.7554/elife.80360)
# B1: HDV Ribozyme (parent)
# chain: GGCCGGCAUGGUCCCAGCCUCCUCGCUGGCGCCGGCUGGGCAACAUUCCGAGGGGACCGUCCCCUCGGUAAUGGCGAAUGGGACCCA
# Variants of: B1
# Assay: self-cleavage, relative activity (ratio to wild type); higher = more cleavage; co-transcriptional
row,Variant,self-cleavage
1,C36A G39C,0.128
2,C36U C62A,0.53
3,U37A U47G,0.222
4,C36A C62G,0.17
5,G38A A77G,0.0852
6,G38A A77U,0.0845
7,C36U G59A,0.704
8,G35U A87G,0.257
9,G38A C86G,0.107
10,C36G A45G,0.185
11,C36G A45C,0.0504
12,G38A A45U,0.107
13,G38A A45G,0.155
14,G38A C44A,0.0678
15,G38A C44U,0.136
16,G38A G50C,0.0831
17,G38C C84G,0.0489
18,C36G C44A,0.128
19,G38C A78C,0
20,G38A C61A,0.105
21,G35U A70G,0.554
22,G35U A70U,0.496
23,G35U C49U,0.554
24,G38C C41G,0.406

row,Variant,self-cleavage
1,U37G A70C,0.312
2,G35U A77G,0.305
3,G38A G74C,0.161
4,G35U U72C,0.0811
5,G38A U72C,0.108
6,C36A A56C,0.131
7,G38A G54U,0.073
8,G38A G54C,0.237
9,C36U U72G,0.431
10,C36U U72C,0.102
11,C36U A78G,0.128
12,U37A A78U,0.0369
13,U37A A78C,0.0997
14,C36U A51G,0.652
15,G38A C41G,0.291
16,C36U C64U,0.628
17,C36G U37A,0.446
18,C36G U37C,0.158
19,C36G A43U,0.0755
20,C36U C48G,0.831
21,G38C A51U,0.181
22,G38C A51C,0.277
23,C36U G50U,0.841
24,G38A A51G,0.141

row,Variant,self-cleavage
1,U37C G50C,1.07
2,U37C G50A,1.01
3,U37A U65G,0.244
4,G35U C61U,0.554
5,G35U C61G,0.286
6,G38A A71G,0.177
7,G38A A71C,0.032
8,U37A G74U,0.208
9,U37G G59C,0.192
10,G35U G55A,0.477
11,G35U G55C,0.409
12,U37G G39C,0.185
13,G35U U79A,0.166
14,U37C U60G,0.906
15,G35C U69C,0.291
16,C36A G82A,0.071
17,U37C U47G,0.8
18,U37C U47C,0.791
19,U37G A51G,0.0639
20,G35U C41U,0.63
21,C36A A87G,0.125
22,G38C C49A,0.237
23,C36A C61G,0.269
24,C36G G52C,0.166

row,Variant,self-cleavage
1,G38C A87C,0.26
2,U37G U46C,0.128
3,U37G G54A,0.0755
4,U37G U65G,0.0573
5,G35U G40A,0.304
6,G35U G40U,0.12
7,U37C U46A,0.458
8,G38A A56U,0.218
9,G38A A56C,0.13
10,C36G G39C,0.232
11,G38A G59C,0.0256
12,G38A G59U,0.182
13,U37C G38A,0.0354
14,U37A C41U,0.403
15,C36G A70U,0.119
16,G35U U65G,0.424
17,G35U U65A,0.35
18,C36G U46G,0.0692
19,U37A U69G,0.369
20,G38C C66G,0.203
21,G38C C66A,0.189
22,U37C G55C,1.1
23,C36G G53C,0.158
24,G38A A70G,0

row,Variant,self-cleavage
1,G38A C49A,0.172
2,G38A C49G,0.151
3,U37C A43G,0.332
4,U37C C66U,1.01
5,C36A C44U,0.208
6,C36A C44A,0.19
7,C36G U72G,0.151
8,G35C U46A,0.101
9,C36A C85U,0.158
10,G38A G68A,0.21
11,C36A G68A,0.293
12,C36A G59C,0.0978
13,G35U G53C,0.478
14,G35U G53A,0.42
15,C36G A77U,0.177
16,G38A G52C,0.0692
17,G38A G52A,0.173
18,U37A G82A,0.138
19,U37C C86A,0.974
20,G35U G82A,0.0841
21,C36G C48G,0
22,G35U U47G,0.295
23,C36A U46G,0.123
24,U37C C44U,0.529

row,Variant,self-cleavage
1,U37G G53A,0.147
2,C36U G52U,0.72
3,G38C C58U,0.408
4,G35U A51C,0.332
5,C36A A43G,0.277
6,U37A C66U,0.314
7,U37A C66A,0.29
8,G35U A83C,0.181
9,G35U A83G,0.241
10,C36A C84G,0.208
11,C36G U65C,0.18
12,U37C A87C,1.21
13,U37C A87G,1.09
14,U37A G53C,0.162
15,U37G U79A,0
16,U37A G67C,0.128
17,C36G C64U,0.138
18,C36G C64G,0.156
19,C36G G67U,0.0361
20,C36G G67A,0.157
21,U37C C63U,1.11
22,U37G C57A,0.0978
23,C36U G81C,0.12
24,C36U G81U,0.29

row,Variant,self-cleavage
1,G35C U79G,0.214
2,G35U A45U,0.289
3,G35U A45C,0.0475
4,C36A U79C,0.086
5,U37A U72A,0.125
6,G38C C64A,0.228
7,U37A G55U,0.0723
8,C36A G73C,0.178
9,U37A C48A,0.208
10,U37C A45U,0.639
11,C36G G59U,0.199
12,G35U G73A,0.0911
13,U37A C86A,0.256
14,U37A C86U,0.35
15,U37G C49A,0.0573
16,U37G C49U,0.268
17,U37G C49G,0.196
18,G38A G81A,0.227
19,U37C G80U,0.224
20,G38C A83G,0.201
21,G38C A83C,0.107
22,G38C A83U,0.0361
23,C36A G76A,0.266
24,C36A A77G,0.0791

row,Variant,self-cleavage
1,C36A A83C,0.0791
2,C36G C62U,0.246
3,C36G C85U,0.151
4,U37G C48U,0
5,U37C G52C,0.856
6,U37A G39U,0.122
7,U37A G39A,0
8,U37A C44G,0.0898
9,G38A U79G,0.151
10,U37G C86G,0.111
11,U37G C86U,0.249
12,U37A A42U,0.131
13,U37A A42C,0.246
14,C36G G68C,0.17
15,C36G G68A,0.233
16,G35U G68C,0.4
17,U37C A56C,1.11
18,C36U G53A,0.641
19,C36G G73A,0.0723
20,C36G G73C,0.185
21,C36U U69G,0.519
22,G38A G73U,0.0978
23,G38A G73C,0.13
24,C36A C57U,0.102

row,Variant,self-cleavage
1,C36U C57U,0.679
2,G35U U46A,0.116
3,G35U U46G,0.141
4,C36U G39U,0.245
5,C36U G39A,0
6,G38A C58A,0.115
7,G38A C58G,0.141
8,U37C G76C,1.19
9,C36A G80U,0.0825
10,U37G A56U,0.0723
11,U37G A56C,0
12,C36A C63A,0.237
13,U37G C62A,0.0594
14,C36U C75U,0.244
15,U37A G76U,0.469
16,U37C G59A,1.1
17,C36G C66U,0.0997
18,U37A C57U,0.146
19,U37A C57A,0.212
20,C36U G55A,0.612
21,G38A G82C,0.262
22,G38A G82A,0.0482
23,C36G U69C,0.155
24,C36G U69G,0.0554

row,Variant,self-cleavage
1,C36G U69A,0.229
2,G35U G74A,0.058
3,G35U G74U,0.182
4,U37G G40U,0.203
5,U37G C64A,0.122
6,U37G C64G,0.0437
7,U37C G53A,1.04
8,U37C G53C,1.2
9,C36U C63U,0.904
10,U37A G52C,0.213
11,C36A C64U,0.237
12,U37G C44U,0.119
13,U37G U72C,0.119
14,U37G U72A,0
15,C36G U47G,0
16,G35C U47A,0.0594
17,C36A A51G,0.269
18,C36A A51U,0.17
19,C36A A51C,0.277
20,G35U G54C,0.517
21,C36G G38U,0.199
22,U37G C85U,0.161
23,U37C C84U,0.655
24,U37A C61A,0.138

row,Variant,self-cleavage
1,C36U C86G,0.703
2,C36U C86A,0.747
3,C36U A43G,0.196
4,U37C A70U,0.974
5,C36G G82A,0.07
6,C36G G82U,0.142
7,C36U A42C,0.155
8,U37A A71U,0.394
9,U37A A71C,0.19
10,U37C G74U,0.332
11,G35U C66A,0.332
12,G35U C66G,0.458
13,G38A A43G,0.155
14,U37G G74U,0.213
15,C36U C58G,0.759
16,G38C C44A,0.0354
17,U37G C84G,0
18,C36U A83U,0.408
19,C36A U69G,0.161
20,U37A C84G,0.151
21,G35U A42C,0.115
22,U37A G54U,0.245
23,U37A G54A,0.104
24,G35U C84A,0.308

row,Variant,self-cleavage
1,C36A U47A,0.196
2,U37G U60A,0.0504
3,U37G C75A,0.156
4,U37G C75U,0.0594
5,U37A G38C,0.0923
6,U37A C63U,0.339
7,C36U U79C,0.201
8,C36U U79A,0.253
9,C36A C86A,0.134
10,G35U G52C,0.366
11,C36U G54A,0.494
12,U37A C49A,0.161
13,U37C G40A,0.95
14,G35C G76U,0.465
15,G38C C63G,0.287
16,G38C C63A,0.332
17,U37C A83U,0.534
18,C36G C63G,0.212
19,C36G C63A,0.269
20,G35U G39C,0
21,C36U A71G,0.653
22,C36G A71U,0.095
23,C36G A78G,0.0639
24,C36G A78U,0.0346

row,Variant,self-cleavage
1,C36G A83G,0.151
2,C36G A83C,0.0831
3,G38A C63G,0.0811
4,G38A C63A,0.0978
5,C36U A56G,0.628
6,U37G A45U,0
7,U37C A42C,0.115
8,C36A C75U,0.0963
9,G38A U60A,0.117
10,G35U C64U,0.449
11,C36U G67A,0.712
12,C36U G67U,0.431
13,U37G G76C,0.142
14,U37G G76U,0.104
15,C36G C61A,0.116
16,G38A C64G,0.142
17,C36A G50C,0.113
18,C36A C48G,0.203
19,C36A G54U,0.229
20,C36A G54A,0.0804
21,G35U C85A,0.373
22,G35U C85G,0.356
23,U37A C85A,0.332
24,G35U C44U,0.193

row,Variant,self-cleavage
1,U37G G81C,0
2,U37G G81U,0.0489
3,U37A A51G,0.302
4,G38A G55C,0.218
5,G38A A87U,0.121
6,U37C G39U,0.564
7,G35U U69A,0.212
8,C36G U79G,0.0437
9,G38A U46A,0
10,G38A U46G,0.111
11,C36G G81C,0.0656
12,U37A C58G,0.369
13,U37G G52A,0.106
14,U37G G52C,0.178
15,G38C C57U,0.282
16,G35U C63U,0.513
17,G35U C63G,0.262
18,G35C U60G,0.353
19,C36U U46A,0.462
20,U37A C62A,0.212
21,U37A C62U,0.104
22,C36G C41U,0.199
